The record followed here is PMC7079100.

Series [1] concerns the target T1, MSI2-RRM1 (Homo sapiens, UniProt Q96DH6 21-111). In words: fluorescence polarization; 2 nM RNA; highest affinity of the three; Kd only in figure; FP at room temperature, 2 nM 3' FAM RNA; buffer, salt and pH not given (previously described methods). For orientation: In fluorescence polarisation assays a small probe gives low polarisation when free and higher when bound to something large.

Series [2] has as its target T1, MSI2-RRM1. In words: fluorescence polarization; 2 nM RNA; lower affinity than Numb15; Kd only in figure; FP at room temperature, 2 nM 3' FAM RNA; buffer, salt and pH not given (previously described methods).

T1 sequence (Q96DH6 21-111): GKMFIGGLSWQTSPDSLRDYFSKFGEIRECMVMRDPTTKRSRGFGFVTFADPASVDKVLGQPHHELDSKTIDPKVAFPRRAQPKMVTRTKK

B1: Numb15 (ssRNA)
RNA: UAGGUAGUAGUUUUA
Consider B1, for which the binding result in series [1] was “binds”.

B2: Numb8 (ssRNA)
RNA: GUAGUAGU
Regarding B2, the binding result in series [2] is recorded as “binds”.

B3: Numb5 (ssRNA)
RNA: GUAGU
Regarding B3, the binding result in series [2] was “binds”.
